This note sets out measurements from patent US20250179196A1 (Janssen / Centocor, published 2025).

Some results are limits rather than exact numbers.

Sequences and labels used below:
B1: I23RB6 (antibody, mouse IgG2a, kappa, V domains shown)
VH: QVQLVQSGAEVKKPGSSVKVSCKASGGTFSSYAISWVRQAPGQGLEWMGGIIPIFGTANYAQKFQGRVTITADESTSTAYMELSSLRSEDTAVYYCARGRYIRSYDYFDYWGQGTLVTVSS
VL: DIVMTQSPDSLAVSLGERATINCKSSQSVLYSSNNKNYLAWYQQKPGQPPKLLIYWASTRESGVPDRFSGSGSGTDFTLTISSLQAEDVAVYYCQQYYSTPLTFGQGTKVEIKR
notes: phage display; human V regions, mouse IgG2a/kappa constant regions
B2: I23RB4 (antibody, mouse IgG2a, kappa, V domains shown)
VH: QVQLVQSGAEVKKPGSSVKVSCKASGGTFKTYAIHWVRQAPGQGLEWMGWIIPIFGTANYAQKFQGRVTITADESTSTAYMELSSLRSEDTAVYYCARDGGYYGSRYYPRSYYFDYWGQGTLVTVSS
VL: EIVLTQSPATLSLSPGERATLSCRASQSVSSYLAWYQQKPGQAPRLLIYDASNRATGIPARFSGSGSGTDFTLTISSLEPEDFAVYYCQQRSNWPLTFGQGTKVEIKR
notes: as for B1
B3: I23RB2 (antibody, mouse IgG2a, kappa, V domains shown)
VH: QVQLVQSGAEVKKPGSSVKVSCKASGGTFSSYAISWVRQAPGQGLEWMGGIIPIFGTANYAQKFQGRVTITADESTSTAYMELSSLRSEDTAVYYCARDRYRYLGANGFDYWGQGTLVTVSS
VL: B2 VL
notes: as for B1
B4: I23RB9 (antibody, mouse IgG2a, kappa, V domains shown)
VH: QVQLVQSGAEVKKPGSSVKVSCKASGGTFSSYAISWVRQAPGQGLEWMGGIIPIFGTANYAQKFQGRVTITADESTSTAYMELSSLRSEDTAVYYCARDRSYSYGLSGLGYYGFDYWGQGTLVTVSS
VL: B2 VL
notes: as for B1
B5: I23RB3 (antibody, mouse IgG2a, kappa, V domains shown)
VH: QVQLVQSGAEVKKPGSSVKVSCKASGGTFKSYSIHWVRQAPGQGLEWMGGIIPYFGYANYAQKFQGRVTITADESTSTAYMELSSLRSEDTAVYYCARERGYYGSIYYGGGFDYWGQGTLVTVSS
VL: B2 VL
notes: as for B1
B6: I23RB76 (antibody, mouse IgG2a, kappa, V domains shown)
VH: EVQLQQSGPELVKPGASVKMSCKASGYTFTDYYMNWMKQSHGKSLEWIGYISPKNGRTGYNQKFKGKATLTVDKSSTTAYMELRSLTSEDSAVYYCAKSNGYYALDYWGQGTTVTVSS
VL: DIVLTQSPATLCVTPGETVSLSCRASQNIYKNLHWFQQKSHRSPRLLIKYASDSISGIPSRFTGSGSGTDYTLSINSVKPEDEGIYYCLQGYSTPWTFGGGTKLEIKR
notes: mouse immunization; mouse IgG2a/kappa
B7: I23RB92 (antibody, mouse IgG2a, kappa, V domains shown)
VH: EVQLQQSGPEVVKPGASVKISCKASGYTFTDHTMDWVKQSHGKNLEWIGYIYPKSGGTGYNQKFKNKATLTVDKSSSTAYMEFHSLTSDDSAVYYCARWGLRRDGFVYWGQGTLVTVSA
VL: DIKMTQSPASLAVSLGQRATISCRASQSVSTSKYDYIHWYQQKSGQPPRLLIKYASNLESGVPARFSGSGSGTDFTLNIHPVEEEDTATYYCQHTWEIPYTFGSGTKLELKR
notes: as for B6
B8: I23RB47 (antibody, mouse IgG2a, kappa, V domains shown)
VH: QVQLKESGPGLVAPSQSLSITCTVSGFSLTNYDIHWVRQSPGKGLEWLGVIWSDGRTDYKGAFISRLSISKDNSKSQVFFKMNSLQADDTAIYYCARNNYYRYGRNTMDYWGQGTSVTVSS
VL: DIVLTQSPASQSASLGESVTITCLASQTIGSWLAWYQQKPGKSPQLLIYAATRLADGVPSRFSGSGSGTKFSFKISSLQAEDFVFYYCHQLYSIPLTFGGGTKLEMKR
notes: as for B6
B9: I23RB32 (antibody, mouse IgG2a, kappa, V domains shown)
VH: EFQLQQSGPELVKPGASVKLSCKASGYTFTDYALHWVKQSPGQGLEWIGWIYPGGGNTYYNDKFKGKATMTADKSSSTAYMQLSSLTSEDSAVYFCARGRLRRDYPMDYWGQGTSVTVSS
VL: DIVMTQSPSSLTVTAGEKVTMSCKSSQSLLNSGNQKNYLTWYQQKPGQPPKLLIYWASTRESGVPDRFTGSGSGTDFTLTISSVQAEDLAVYYCQNDYTYPLTFGSGTKLEIKR
notes: as for B6
B10: I23RB101 (antibody, mouse IgG2a, kappa, V domains shown)
VH: EVQLQQSGAEVKKPGSSVKVSCKASGGTFSSYAISWVRQAPGQGLEWMGWINPNSGGTNYAQKFQGRVTMTRDTSISTAYMELSRLRSDDTAVYYCARGYRYGPLDGFDIWGQGTTLTVSS
VL: DIVMTQSHKFMSTSIGDRVSITCKTSQDVRTAVAWYQQKPGQSPKLLIYSASYRYIGVPDRFTGSGSGTDFTFTISDVQAEDLALYYCQQHYSTPYTFGGGTKLEIKR
notes: as for B6

One test concerns the target T1, Recombinant human IL-23 receptor (IL-23R) extracellular domain (ECD) protein (human, UniProt Q5VWK5 24-355).
T1 construct: also called human IL-23R ECD; hu IL-23R ECD
T1 sequence: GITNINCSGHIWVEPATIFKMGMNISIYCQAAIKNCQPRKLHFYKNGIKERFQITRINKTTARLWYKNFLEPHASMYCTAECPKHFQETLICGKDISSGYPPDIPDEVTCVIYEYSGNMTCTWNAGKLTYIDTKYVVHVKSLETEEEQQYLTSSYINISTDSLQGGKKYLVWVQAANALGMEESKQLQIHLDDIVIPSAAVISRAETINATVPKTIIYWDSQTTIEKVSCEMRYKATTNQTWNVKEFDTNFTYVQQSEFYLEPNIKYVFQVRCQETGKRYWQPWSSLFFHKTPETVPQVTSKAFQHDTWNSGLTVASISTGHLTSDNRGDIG
The test can be described thus: SPR ProteOn, purified. As to the method:
Affinity by SPR using ProteOn. Affinity measurements using Surface Plasmon Resonance (SPR) were performed using a ProteOn XPR36 system (BioRad). […] Approximately 6000 RU (response units) of mAbs were immobilized. The kinetic experiments were performed at 25° C. in running buffer (DPBS+0.01% P20+100 μg/ml BSA). […] The association phase was monitored for 3 minutes at 50 μL/min, then followed by 10 minutes of buffer flow (dissociation phase). The chip surface was regenerated with two 18 second pulses of 100 mM H3PO4 (Sigma, Cat #7961) at 100 μL/min. The collected data were processed using ProteOn Manager software. First, the data was corrected for background using inter-spots. Then, double reference subtraction of the data was performed by using the buffer injection for analyte injections. The kinetic analysis of the data was performed using a Langmuir 1:1 binding model. The result for each mAb was reported in the format of Ka (On-rate), Kd (Off-rate) and KD (equilibrium dissociation constant).
For the molecule B1, the binding result is “no binding”.

With B2, the dissociation constant Kd (usually the concentration at which binding is half-saturated) stood at 0.151 nM; the koff (usually the first-order rate constant of dissociation) came out at 0.000235 s⁻¹; the association rate constant (kon) – broadly, the second-order rate constant of association – worked out at 1.56e+06 M⁻¹ s⁻¹.

B3: the Kd is greater than 4000 nM.

As to B4, the binding result is given as “no binding”.

In the case of B5, the Kd is 1.92 nM, the koff was 0.000335 s⁻¹ and the kon is 174000 M⁻¹ s⁻¹.

In another test the target is T2, rat IL-23R extracellular domain (ECD) protein (rat).
T2 construct: also called rat IL-23R ECD; F1LX96 amino acids 24-354
T2 chain: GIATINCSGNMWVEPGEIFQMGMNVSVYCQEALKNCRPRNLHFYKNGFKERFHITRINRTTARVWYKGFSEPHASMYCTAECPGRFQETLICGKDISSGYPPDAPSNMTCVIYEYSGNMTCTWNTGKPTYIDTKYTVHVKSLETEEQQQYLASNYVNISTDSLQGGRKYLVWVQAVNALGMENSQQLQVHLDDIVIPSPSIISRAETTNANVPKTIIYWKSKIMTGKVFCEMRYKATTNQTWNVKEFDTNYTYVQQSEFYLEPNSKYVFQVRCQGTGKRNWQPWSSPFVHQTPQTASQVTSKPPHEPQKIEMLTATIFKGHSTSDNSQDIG
The test can be described thus: SPR Biacore 8K, supernatant. Put shortly: (§1)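 mAbs captured (~150 RU) on Biacore 8K; human or rat IL-23R ECD injected at 0.8–500 nM (5-fold series) at 25 °C in HBS-P+ with 100 μg/ml BSA. Association 3 min at 50 μL/min, dissociation 30 min. Ka, Kd and KD from Langmuir 1:1 fit.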
Turning to B6, the binding result is listed as “no binding (tested: 500 nM)”.

B2: the binding result is “no binding (tested: 500 nM)”.

Regarding B5, the binding result is on record as “no binding (tested: 500 nM)”.

On to B7, for which the binding result is “no binding (tested: 500 nM)”.

A further test addresses T1, Recombinant human IL-23 receptor …. The test can be described thus: SPR Biacore 8K, purified, analysis 2. As to the method:
(§2) Affinity by SPR using Biacore 8K. Affinity measurements using Surface Plasmon Resonance (SPR) were performed using a Biacore 8K system (Cytiva). […] Approximately 9000-10000 RU (response units) of mAbs were immobilized. The kinetic experiments were performed at 25° C. in running buffer 1× of (HBS-P+ Buffer 10× (Cytiva #BR100671)+100 μg/ml BSA). To perform kinetic experiments, approximately 150 RU of mAbs were captured followed by injections of human IL-23R or rat IL-23R at concentrations ranging from 0.8 nM to 500 nM (in a 5-fold serial dilution). The association phase was monitored for 3 minutes at 50 μL/min, then followed by 30 minutes of buffer flow (dissociation phase). […] The collected data were processed using Biacore insight Evaluation software (Version 3.0.12.15655). The kinetic analysis of the data was performed using a Langmuir 1:1 binding model. The result for each mAb was reported in the format of Ka (On-rate), Kd (Off-rate) and KD (equilibrium dissociation constant).
B8: the dissociation constant Kd came to 0.114 nM, the off-rate constant (koff) came out at 5.17e-05 s⁻¹ and the on-rate constant (kon) amounted to 453000 M⁻¹ s⁻¹.

Regarding B6, the Kd was 0.0859 nM, the off-rate (koff) turned out to be 4.14e-05 s⁻¹ and the on-rate (kon) is 482000 M⁻¹ s⁻¹.

Consider B9, for which the Kd is 0.34 nM, the dissociation rate constant (koff) amounted to 0.000172 s⁻¹ and the kon stood at 506000 M⁻¹ s⁻¹.

Regarding B7, the Kd was less than 0.12 nM, the koff is less than 2.89e-05 s⁻¹ and the kon is 240000 M⁻¹ s⁻¹.

The target is the same in the next test. The test can be described thus: SPR Biacore 8K, supernatant, analysis 1. The gist of the method: as §1
(Surface plasmon resonance follows binding to a sensor surface in real time, without labels.)
In the case of B8, the equilibrium dissociation constant (Kd) was less than 0.051 nM, the dissociation rate constant (koff) was less than 2.89e-05 s⁻¹ and the kon was 566000 M⁻¹ s⁻¹.

Another test has as its target T2, rat IL-23R extracellular domain (ECD) …. Description: SPR Biacore 8K, purified. The protocol: as §2
With B8, the binding result is “no binding (tested: 500 nM)”.

Take B10: the binding result is given as “no binding (tested: 500 nM)”.

Consider B9, for which the binding result was “no binding (tested: 500 nM)”.

In another test the target is T1, Recombinant human IL-23 receptor …. The test can be described thus: SPR Biacore 8K, purified, analysis 1. As to the method: as §2
B6: the Kd worked out at 0.0891 nM, the koff stood at 5.62e-05 s⁻¹ and the kon came to 631000 M⁻¹ s⁻¹.

Consider B2, for which the dissociation constant Kd worked out at 0.588 nM, the koff was determined as 0.000135 s⁻¹ and the kon is 230000 M⁻¹ s⁻¹.

For B5, the Kd turned out to be 4.76 nM, the off-rate constant (koff) is 0.000255 s⁻¹ and the on-rate constant (kon) was 53600 M⁻¹ s⁻¹.

B9: the equilibrium dissociation constant (Kd) was found to be 0.332 nM, the koff was determined as 0.000182 s⁻¹ and the on-rate (kon) came out at 550000 M⁻¹ s⁻¹.

As to B7, the Kd was less than 0.109 nM, the off-rate constant (koff) was less than 2.89e-05 s⁻¹ and the kon was determined as 265000 M⁻¹ s⁻¹.

For another test the target is unchanged. Description: SPR Biacore 8K, supernatant, analysis 2. Put shortly:
as §1
B8: the dissociation constant Kd was 0.119 nM, the off-rate (koff) came out at 5.32e-05 s⁻¹ and the kon was determined as 445000 M⁻¹ s⁻¹.

In the case of B6, the equilibrium dissociation constant (Kd) amounted to 0.0805 nM, the koff came out at 3.9e-05 s⁻¹ and the kon was 484000 M⁻¹ s⁻¹.

As for B2, the dissociation constant (Kd) was found to be 0.477 nM, the koff was found to be 0.000121 s⁻¹ and the on-rate constant (kon) was 254000 M⁻¹ s⁻¹.

B5: the Kd is 3.99 nM, the koff was 0.000233 s⁻¹ and the association rate constant (kon) is 58300 M⁻¹ s⁻¹.

For B7, the Kd is less than 0.124 nM, the koff was less than 2.89e-05 s⁻¹ and the kon came to 233000 M⁻¹ s⁻¹.
